Legend:
[1] = target: the molecule itself; assay: gel filtration on Sephadex-100, self-association (~1 mg/ml dimer; about 10 mg/ml tendency to tetramers)
Experimental: (§1) Purified protein samples (˜1 mg/ml) were loaded onto a Sephadex-100 column (0.7×60 cm) and eluted with a solution of 50 mM phosphate buffer (pH 7.0) and 100 mM NaCl. EGFP, HcRed1 and DsRed2 (Clontech) were used as monomer, dimer and tetramer standards, respectively. In addition, a tendency to form tetramers has been indicated when recombinant purified EqFP578 was used for the gel-filtration at concentration of about 10 mg/ml.

[2] = target: the molecule itself; assay: gel filtration as in Example 2, self-association
Experimental: as §1
Recombinant EqFP578 ml was prepared, purified and characterized as described in the Example 2 for wild type EqFP578. Fluorescence properties of this mutant were similar, but not identical to the wild type EqFP578. It has excitation-emission spectral peaks at 553 and 574 nm, respectively (FIG. 3). […] Like wild type EqFP578, EqFP578 m1 is a dimer.

[3] = target: the molecule itself; assay: gel filtration, self-association
Experimental: as §1
Recombinant M1-NA was prepared, purified and characterized as described in the Example 2 for wild type EqFP578. According to gel-filtration data, M1-NA is a dimeric protein at a concentration of 1 mg/ml. Fluorescent properties of M1-NA are the same as those of EqFP578 ml. M1-NA is a bright red fluorescent protein, characterized with excitation/emission fluorescence spectra peaked at 553/574 nm. M1-NA fluorescence quantum yield=0.67, molar extinction coefficient (at 553 nm)=92,000 M(−1)cm(−1). M1-NA doesn't form aggregates in vitro, according to gel-electrophoresis data. It also doesn't form any noticeable aggregates upon expression in eukaryotic cells, as it was shown for HeLa and 293T cell lines.
It excitation/emission spectra peaked at 574/602 nm (see FIG. 4 for spectra). M1-602 nm fluorescence quantum yield=0.35, molar extinction coefficient (at 574 nm)=74,400 M″)cm⁽⁻¹⁾. According to gel-filtration data, M1-602 nm is a dimeric protein at concentration of 1 mg/ml.

[4] = target: the molecule itself; assay: gel filtration (self-association)
Experimental: as §1
Recombinant nrM181-5 was prepared, purified and characterized as described in the Example 2 for wild type EqFP578. nrM181-5 is a cyan fluorescent protein, characterized with excitation/emission fluorescence spectra peaked at 400/470 nm (see FIG. 7 for spectra). According to gel-filtration data, nrM181-5 is a monomeric protein at a concentration of 1 mg/ml. The protein is capable of photoconversion to the red fluorescent form in response to violet light irradiation.

B1: wild type Entacmaea quadricolor red fluorescent protein EqFP578 (other)
chain: MSELIKENMHMKLYMEGTVNNHHFKCTSEGERKPYEGTQTMKIKVVEGGPLPFAFDILATSFMYGSKTFINHTQGIPDLFKQSFPEGFTWERITTYEDGGVLTATQDTSLQNGCIIYNVKINGVNFPSNGSVMQKKTLGWEANTEMLYPADGGLRGHSQMALKLVGGGYLHCSFKTTYRSKKPAKNLKMPGFHFVDHRLERIKEADKETYVEQHEMAVAKYCDLPSKLGHR
notes: Recombinant protein from E. coli, purified on TALON resin; Dimer by gel filtration at ~1 mg/ml, with a tendency to form tetramers at about 10 mg/ml; not shown: N-terminal six-histidine tag from the pQE30 vector
binding result [1]: binds

B2: EqFP578 m1 mutant (other)
chain: MSELIKENMHMKLYMEGTVNNHHFKCTSEGEGKPYEGTQTMKIKVVEGGPLPFAFDILATSFMYGSKAFINHTQGIPDFFKQSFPEGFTWERITTYEDGGVLTATQDTSFQNGCIIYNVKINGVNFPSNGPVMQKKTRGWEANTEMLYPADGGLRGHSQMALKLVGGGYLHCSFKTTYRSKKPAKNLKMPGFHFVDHRLERIKEADKETYVEQHEMAVAKYCDLPSKLGHR
notes: Engineered mutant of EqFP578; also called EqFP578 ml
binding result [2]: binds

B3: M1-NA non-aggregating mutant of EqFP578 (other)
chain: MGEYSELITENMHMKLYMEGTVNNHHFKCTSEGEGKPYEGTQTMKIKVVEGGPLPFAFDILATSFMYGSKAFINHTQGIPDFFKQSFPEGFTWERITTYEDGGVLTATQDTSFQNGCIIYNVKINGVNFPSNGPVMQKKTRGWEANTEMLYPADGGLRGHSQMALKLVGGGYLHCSFKTTYRSKKPAKNLRMPGFHFVDHRLERIKEADKETYVEQHEMAVAKYCDLPSKLGHS
binding result [3]: binds

B4: M1-602 mutant of EqFP578 (other)
chain: MGEDSELITENMHMKLYMEGTVNNHHFKCTSEGEGKPYEGTQTMKIKVVEGGPLPFAFDILATSFMYGSKAFINHTQGIPDFFKQSFPEGFTWERITTYEDGGVLTATQDTSLQNGCLIYNVKINGVNFPSNGPVMQKKTLGWEASTEMLYPADSGLRGHGQMALKLVGGGYLHCSLKTTYRSKKPAKNLKMPGFHFVDHRLERIKEADKETYVEQHEMAVAKYCDLPSKLGHS
notes: Engineered red-shifted mutant; also called M1-602 nm
binding result [3]: binds

B5: M1-637 mutant of EqFP578 (other)
chain: MGEDSELITENMHMKLYMEGTVNNHHFKCTSEGEGKPYEGTQTMKIKVVEGGPLPFAFDILATSFMYGSKAFINHTQGIPDFFKQSFPEGFTWERITTYEDGGVLTATQDTSLQNGCLIYNVKINGVNFPSNGPVMQKKTLGWEASTEMLYPADSGLRGHSQMALKLVGGGYLHCSLKTTYRSKKPAKNLKMPGFHFVDRRLERIKEADKETYVEQHEMAVAKYCDLPSKLGHS
binding result [3]: binds

B6: nrM181-5 cyan mutant of EqFP578 (other)
chain: MSELIKENMHMKLYMEGTVNNHHFKCTSEGEGKPYEGTQTMKIKVVEGGPLPFAFDILATSFMYGSKTFINHTQGIPDFFKQSFPEGFTWERVTTYEDGGVLTATQDTSLQDGCLIYNVKIRGVNFPSNGPVMQKKTLGWEAHTEMLYPADGGLEGRSDMALKLVGGGHLIANFKTTYRSKKPAKNLKMPGVYYVDHRLERIKEADKETYVEQHEMAVAKYCDLPSKLGHKLN
notes: Derived from M1-mono1
binding result [4]: no binding (tested: 1 mg/ml)

B7: Cyan-2-1 cyan mutant of EqFP578 (other)
chain: MSELIKENMHMKLYMEGTVNNHHFKCTSEGEGKPYGGTQTMRIKVVEGGPLPVAFDILATSFMYGSRTFINHTQGIPDFFKQSFPEGFTWERVTTYEDGGVLTATQDTSLQDGCLIYNVKIRGVNFPSNGPVMQKKTLGWEAFTEMLYPADGGLEGRSDMALKLVGGGHLICNFKTTYRSKKPAKNLKMPGVYYVDYRLERIKEADKETYVEQHEVAVARYCDLPSKLGHKLN
notes: Derived from M1-mono1
binding result [4]: no binding (tested: 1 mg/ml)

— patent US20130203162A1 (EVROGEN IP JOINT STOCK, published 2013)
